Experimental data reported in patent US20050069542A1 (Human Genome Sciences, published 2005).

Target: T1, flag-tagged soluble TL3 (amino acids 105-251 of SEQ ID NO:234) (Homo sapiens (Human), UniProt O75888 105-250)
T1 construct: Heterologous flag-tagged control protein, immobilized in the ELISA; also called flagged tagged TL-3; not shown: Flag tag
T1 sequence: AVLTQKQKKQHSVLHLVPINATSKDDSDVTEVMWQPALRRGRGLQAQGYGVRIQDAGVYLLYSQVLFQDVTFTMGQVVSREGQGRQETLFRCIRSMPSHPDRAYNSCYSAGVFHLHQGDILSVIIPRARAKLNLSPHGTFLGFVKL
Assay: phage ELISA on immobilized flag-tagged soluble TL3
Method: The individual phage isolates in the panel of phage, each phage expressing a unique scFv that bound to flag-tagged GMAD, were tested to ensure specificity for GMAD using an ELISA assay. The scFvs were tested in an ELISA for their ability to bind a heterologous flag-tagged protein, in this case—immobilized soluble TL3 (amino acids 105-251 of SEQ ID NO:234, GenBank Accesion Number NP_{—}003799, also described in International Patent Application Publication Number WO97/33902 and WO2001/96528 which are herein incorporated by reference in their entireties).

Binder	binding result
GMBC603 (scFv) scFv: QVQLVQSGGGVVRPGGSLRLSCAASGFTFDDYGMSWVRQAPGKGLEWVSGINWNGGSTGYADSVKGRFTISRDNAKNSLYLQMNSLRAEDTALYYCAKDLNYDFWSGSGMDVWGRGTLVTVSSGGGGSGGGGSGGGGSQSVLTQPASVSGSPGQSITISCTGTSSDVGGYNYVSWYQQHPGKAPKLMIYEGSKRPSGVSNRFSGSKSGNTASLTISGLQAEDEADYYCSSYTTRSTRVFGGGTKLTVLG	no binding
GMBC692 (scFv) scFv: EVQLVQSGGGLVKPGGSLRLSCAASGFTFSDAWMNWVRQAPGKGLEWVGRIKSKGSGGTIDYAAPVKDRFTISRDDSKNTLYLQMNSLKTEDTALYYCTWDWDFYYGMNVWGRGTLVTVSSGGGGSGGGGSGGGGSQSVLTQPASVSGSPGQSITISCTGTSSDVGGYNYVSWYQQHPGKAPKLMIYEGSKRPSGVSNRFSGSKSGNTASLTISGLQAEDEADYYCSSYTTRSTRVFGGGTKLTVLG	no binding
GMBC607 (scFv) scFv: EVQLVQSGGGLVKPGGSLRLSCAASGFTFSDAWMNWVRQAPGKGLEWVGRIKSKGSGGTIDYAAPVKDRFTISRDDSKNMLYLEMNSLKTEDTALYYCTWDWDFYYGMNVWGQGTMVTVSSGGGGSGGGGSGGGGSQSVLTQPASVSGSPGQSITISCTGTSSDVGDYNYVSWYQQHPGKAPKLMIYEGSKRPSGVSNRFSGSKSGNTASLTISGLQAEDEADYYCSSYTTRSTRVFGGGTKLTVLG	no binding
GMBC605 (scFv) scFv: QVQLVQSGGGLVKPGGSLRLSCETSGFKFSDAWMNWVRQAPGKGLEWVGRIKSKGSGGTIDYAAPVKDRFTISRDDSKNTLYLQMNSLKTEDTALYYCTWDWDFYYGMNVWGRGTLVTVSSGGGGSGGGGSGGGGSQSVLTQPASVSGSPGQSITISCTGTSSDVGGYNYVSWYQQHPGKAPKLMIYEGSKRPSGVSNRFSGSKSGNTASLTISGLQAEDEADYYCSSYTTRSTRVFGGGTKLTVLG	no binding
GMBC616 (scFv) scFv: EVQLVESGGGLVKPGGSLRLSCAASGFTFSDAWMNWVRQAPGKGLEWVGRIKSKGSGGTTDYAAPVKDRFTISRDDSENTLYLQMNSLKTEDTAVYYCTWDHSYYYDMAVWGRGTLVTVSSGGGGSGGGGSGGGGSQSVLTQPPFVSGSPGQSITISCTGTSSDVGGYNYVSWYQQHPGKAPKLMIYEGSKRPSGVSNRFSGSKSGNTASLTISGLQAEDEADYYCSSYTTRSTRVFGGGTKLTVLG	no binding
GMBC615 (scFv) scFv: EVQLVESGGGLVKPGGSLRLSCAASGFKFSDAWMNWVRQAPGKGLEWVGRIKSKGSGGTIDYAAPVKDRFTISRDDSKNTLYLQMNSLKTEDTALYYCTWDWDFYYGMNVWGKGTLVAVSSGGGGSGGGGSGGGGSQSVLTQPASVSGSPGQSITISCTGTSSDVGGYNYVSWYQQHPGKAPKLMIYEGSKRPSGVSNRFSGSKSGNTASLTISGLQAEDEADYYCSSYTTRSTRVFGGGTKLTVLG	no binding
GMBC614 (scFv) scFv: EVQLVQSGGGLVKPGGSLRLSCAASGFTFSDAWMNWVRQAPGKGLEWVGRIKSKGSGGTIDYAAPVKDRFTISRDDSKNTLYLQMNSLKTEDTALYYCTWDWDFYYGMNVWGRGTMVTVSSGGGGSGGGGSGGGGSQSVLTQPASVSGSPGQSITISCTGTSSDVGGYNYVSWYQQHPGKAPKLMIYEGSKRPSGVSNRFSGSKSGNTASLTISGLQAEDEADYYCSSYTTRSTRVFGGGTKLTVLG	no binding
GMBC613 (scFv) scFv: KVQLVESGGGLVQPGGSLRLSCAASGFTISSHWMSWVRQAPGKGLEWVASIKQDGREKHFVDSVKGRFSISRDNAKNSLYLQMNSLRTEDTAVYYCARETYGGYYYYFMDVWGKGTLVTVSSGGGGSGGGGSGGGGSSELTQDPAVSVALGQTVRITCQGDSLRSYYASWYQQKPGQAPVLVIYGKNNRPSGIPDRFSGSSSGNTASLTITGAQAEDEADYYCNSRDSSGNHVVFGGGTKLTVLG	no binding
